Experimental data reported in US20260242735A1 (UNIVERSIT T BASEL, published 2026).

What was measured:
[1] = biological target: human CD33 extracellular region F21L (human, UniProt P20138 22-259); test: BLI Octet, IgG captured on AHC, CD33 analyte;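 also: CD33 variants and wild type run as analyte at 5, 50 and 500 nM, 700 s association then 1200 s dissociation, buffer-only reference subtracted, global 1:1 fit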
Description: Human CD33 wt and variants, were used as analyte at 3 different concentrations (500, 50 and 5 nM). Association of the analyte to the antibodies was monitored for 700 s and dissociation of the analyte from the antibodies was monitored for 1200 s. Reference subtraction was performed against buffer only wells. AHC tips were regenerated using 10 mM Glycine-HCl pH 1.7. Data were analyzed with Octet Data Analysis software HT 12.0. Data were fitted to a 1:1 binding model. Kinetic rates ka and kd and response signal were globally fitted.

[2] = biological target: human CD33 G88A (human, UniProt P20138 18-364); test: alanine scan, flow cytometry, HEK293-T;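 also: antibody binding to each alanine-substituted CD33 mutant expressed transiently in HEK293-T, read as fluorescence minus background, mean of duplicates, relative to wild-type CD33 set as 100%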
[3] = biological target: human CD33 V106A (human, UniProt P20138 18-364); test: alanine scan, flow cytometry, HEK293-T;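 also: antibody binding to each alanine-substituted CD33 mutant expressed transiently in HEK293-T, read as fluorescence minus background, mean of duplicates, relative to wild-type CD33 set as 100%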
[4] = biological target: human CD33 D18N (human, UniProt P20138 19-364); test: flow cytometry, HEK293-T, IgG;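 also: CD33 point mutants transiently expressed, antibody binding measured by fluorescence in duplicate, background subtracted and scaled to binding on wild-type CD33 as 100%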
Description: (§1) An alanine scan on human CD33 was performed to the determine the residues on CD33 that are involved in binding to the antibodies investigated. […] Briefly, a mutation library of CD33 was created by high-throughput, site-directed mutagenesis. Each residue was individually mutated to alanine, with alanine codons mutated to serine. The mutant library was arrayed in 384-well microplates and transiently transfected into HEK293-T. Following transfection, cells were incubated with the indicated antibodies (IgG or Fab) at concentrations pre-determined using an independent immunofluorescence titration curve on wild type CD33. […] Binding of each antibody to each mutant clone was determined in duplicates. For each point, background fluorescence was subtracted from the raw data, which were then normalized to antibody reactivity with wild type CD33.
(§2) Antibodies were screened for binding to the human CD33 variants in IgG format. […] For each mutation, background fluorescence was subtracted from the raw data, which were then normalized to antibody reactivity with wild-type CD33.

[5] = biological target: human CD33 P19D (human, UniProt P20138 18-364); test: flow cytometry, HEK293-T, IgG;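 also: CD33 point mutants transiently expressed, antibody binding measured by fluorescence in duplicate, background subtracted and scaled to binding on wild-type CD33 as 100%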
Chain of human CD33 P19D (P20138 18-364 P19D limits assumed): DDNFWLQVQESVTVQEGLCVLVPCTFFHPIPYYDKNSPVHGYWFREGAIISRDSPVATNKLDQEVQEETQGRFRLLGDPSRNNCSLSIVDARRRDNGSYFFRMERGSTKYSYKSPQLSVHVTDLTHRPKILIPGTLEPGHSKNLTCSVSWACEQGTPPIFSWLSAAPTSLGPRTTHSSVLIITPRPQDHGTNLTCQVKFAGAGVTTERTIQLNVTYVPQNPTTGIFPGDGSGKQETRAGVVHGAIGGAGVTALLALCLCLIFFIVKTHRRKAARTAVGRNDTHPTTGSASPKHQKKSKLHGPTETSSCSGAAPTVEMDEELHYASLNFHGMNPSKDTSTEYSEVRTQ
Description: as §1, §2

[6] = biological target: human CD33 N20G (human, UniProt P20138 18-364); test: flow cytometry, HEK293-T, IgG;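 also: CD33 point mutants transiently expressed, antibody binding measured by fluorescence in duplicate, background subtracted and scaled to binding on wild-type CD33 as 100%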
Description: as §1, §2

[7] = biological target: human CD33 N20S (human, UniProt P20138 18-364); test: flow cytometry, HEK293-T, IgG;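 also: CD33 point mutants transiently expressed, antibody binding measured by fluorescence in duplicate, background subtracted and scaled to binding on wild-type CD33 as 100%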
Description: as §1, §2

[8] = biological target: human CD33 N20T (human, UniProt P20138 18-364); test: flow cytometry, HEK293-T, IgG
Chain of human CD33 N20T (P20138 18-364 N20T limits assumed): as the sequence (P20138 18-364 P19D limits assumed) above, with D2P, N3T counted along it
Description: as §1, §2

[9] = biological target: human CD33 N20L (human, UniProt P20138 18-364); test: flow cytometry, HEK293-T, IgG
Chain of human CD33 N20L (P20138 18-364 N20L limits assumed): as the sequence (P20138 18-364 P19D limits assumed) above, with D2P, N3L counted along it
Description: as §1, §2

[10] = biological target: human CD33 N20P (human, UniProt P20138 18-364); test: flow cytometry, HEK293-T, IgG
Chain of human CD33 N20P (P20138 18-364 N20P limits assumed): as the sequence (P20138 18-364 P19D limits assumed) above, with D2P, N3P counted along it
Description: as §1, §2

[11] = biological target: human CD33 N20Y (human, UniProt P20138 18-364); test: flow cytometry, HEK293-T, IgG
Chain of human CD33 N20Y (P20138 18-364 N20Y limits assumed): as the sequence (P20138 18-364 P19D limits assumed) above, with D2P, N3Y counted along it
Description: as §1, §2

[12] = biological target: human CD33 N20W (human, UniProt P20138 18-364); test: flow cytometry, HEK293-T, IgG
Chain of human CD33 N20W (P20138 18-364 N20W limits assumed): as the sequence (P20138 18-364 P19D limits assumed) above, with D2P, N3W counted along it
Description: as §1, §2

[13] = biological target: human CD33 N20Q (human, UniProt P20138 18-364); test: flow cytometry, HEK293-T, IgG
Description: as §1, §2

[14] = biological target: human CD33 N20D (human, UniProt P20138 18-364); test: flow cytometry, HEK293-T, IgG
Description: as §1, §2

[15] = biological target: human CD33 N20E (human, UniProt P20138 18-364); test: flow cytometry, HEK293-T, IgG
Chain of human CD33 N20E (P20138 18-364 N20E limits assumed): as the sequence (P20138 18-364 P19D limits assumed) above, with D2P, N3E counted along it
Description: as §1, §2

[16] = biological target: human CD33 N20V (human, UniProt P20138 18-364); test: flow cytometry, HEK293-T, IgG
Description: as §1, §2

[17] = biological target: human CD33 F21V (human, UniProt P20138 18-364); test: flow cytometry, HEK293-T, IgG
Chain of human CD33 F21V (P20138 18-364 F21V limits assumed): as the sequence (P20138 18-364 P19D limits assumed) above, with D2P, F4V counted along it
Description: as §1, §2

[18] = biological target: human CD33 F21L (human, UniProt P20138 18-364); test: flow cytometry, HEK293-T, IgG
Chain of human CD33 F21L (P20138 18-364 F21L limits assumed): as the sequence (P20138 18-364 P19D limits assumed) above, with D2P, F4L counted along it
Description: as §1, §2

[19] = biological target: human CD33 F21I (human, UniProt P20138 18-364); test: flow cytometry, HEK293-T, IgG
Chain of human CD33 F21I (P20138 18-364 F21I limits assumed): as the sequence (P20138 18-364 P19D limits assumed) above, with D2P, F4I counted along it
Description: as §1, §2

[20] = biological target: human CD33 F21H (human, UniProt P20138 18-364); test: flow cytometry, HEK293-T, IgG
Description: as §1, §2

[21] = biological target: human CD33 W22G (human, UniProt P20138 18-364); test: flow cytometry, HEK293-T, IgG
Description: as §1, §2

[22] = biological target: human CD33 W22T (human, UniProt P20138 18-364); test: flow cytometry, HEK293-T, IgG
Chain of human CD33 W22T (P20138 18-364 W22T limits assumed): as the sequence (P20138 18-364 P19D limits assumed) above, with D2P, W5T counted along it
Description: as §1, §2

[23] = biological target: human CD33 W22N (human, UniProt P20138 18-364); test: flow cytometry, HEK293-T, IgG
Chain of human CD33 W22N (P20138 18-364 W22N limits assumed): as the sequence (P20138 18-364 P19D limits assumed) above, with D2P, W5N counted along it
Description: as §1, §2

[24] = biological target: human CD33 W22Q (human, UniProt P20138 18-364); test: flow cytometry, HEK293-T, IgG
Description: as §1, §2

[25] = biological target: human CD33 L23M (human, UniProt P20138 18-364); test: flow cytometry, HEK293-T, IgG
Description: as §1, §2

[26] = biological target: human CD33 Q24T (human, UniProt P20138 18-364); test: flow cytometry, HEK293-T, IgG
Description: as §1, §2

[27] = biological target: human CD33 Q24V (human, UniProt P20138 18-364); test: flow cytometry, HEK293-T, IgG
Description: as §1, §2

[28] = biological target: human CD33 Q24I (human, UniProt P20138 18-364); test: flow cytometry, HEK293-T, IgG
Chain of human CD33 Q24I (P20138 18-364 Q24I limits assumed): as the sequence (P20138 18-364 P19D limits assumed) above, with D2P, Q7I counted along it
Description: as §1, §2

[29] = biological target: human CD33 Q24L (human, UniProt P20138 18-364); test: flow cytometry, HEK293-T, IgG
Description: as §1, §2

[30] = biological target: human CD33 Q24N (human, UniProt P20138 18-364); test: flow cytometry, HEK293-T, IgG
Description: as §1, §2

[31] = biological target: human CD33 Q24R (human, UniProt P20138 18-364); test: flow cytometry, HEK293-T, IgG
Description: as §1, §2

[32] = biological target: human CD33 V25S (human, UniProt P20138 18-364); test: flow cytometry, HEK293-T, IgG
Description: as §1, §2

[33] = biological target: human CD33 V25I (human, UniProt P20138 18-364); test: flow cytometry, HEK293-T, IgG
Description: as §1, §2

[34] = biological target: human CD33 V25L (human, UniProt P20138 18-364); test: flow cytometry, HEK293-T, IgG
Chain of human CD33 V25L (P20138 18-364 V25L limits assumed): as the sequence (P20138 18-364 P19D limits assumed) above, with D2P, V8L counted along it
Description: as §1, §2

[35] = biological target: human CD33 V25M (human, UniProt P20138 18-364); test: flow cytometry, HEK293-T, IgG
Description: as §1, §2

[36] = biological target: T1, human CD33 I176A (human, UniProt P20138 18-364); test: alanine scan, flow cytometry, HEK293-T;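 also: antibody binding to each alanine-substituted CD33 mutant expressed transiently in HEK293-T, read as fluorescence minus background, mean of duplicates, relative to wild-type CD33 set as 100%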
T1 construct: alanine scan clone, transfected HEK293-T

B1: Refmab #3 (antibody, human IgG1, V domains shown)
VH: QVQLVQSGAEVKKPGSSVKVSCKASGYTFTDYNMHWVRQAPGQGLEWIGYIYPYNGGTGYNQKFKSKATITADESTNTAYMELSSLRSEDTAVYYCARGRPAMDYWGQGTLVTVSS
VL: DIQMTQSPSSLSASVGDRVTITCRASESVDNYGISFMNWFQQKPGKAPKLLIYAASNQGSGVPSRFSGSGSGTDFTLTISSLQPDDFATYYCQQSKEVPWTFGQGTKVEIK
% WT binding [1]: 0%

B2: Refmab #6 (antibody, V domains shown)
VH: QVQLQQPGAEVVKPGASVKMSCKASGYTFTSYYIHWIKQTPGQGLEWVGVIYPGNDDISYNQKFQGKATLTADKSSTTAYMQLSSLTSEDSAVYYCAREVRLRYFDVWGQGTTVTVSS
VL: EIVLTQSPGSLAVSPGERVTMSCKSSQSVFFSSSQKNYLAWYQQIPGQSPRLLIYWASTRESGVPDRFTGSGSGTDFTLTISSVQPEDLAIYYCHQYLSSRTFGQGTKLEIK
notes: Full-length format is human IgG1 Fc silent (PG-LALA); also made as Fab; The alanine scan used IgG or Fab
Mean % WT Binding [2]: 105 % WT binding
Mean % WT Binding [3]: 125 % WT binding

B3: Refmab #6 (antibody, human IgG1, V domains shown)
VH: B2 VH
VL: B2 VL
notes: tested in IgG format
Mean % WT Binding [4]: 32.2 % WT binding
Mean % WT Binding [5]: 105 % WT binding
Mean % WT Binding [6]: 101 % WT binding
Mean % WT Binding [7]: 101 % WT binding
Mean % WT Binding [8]: 106 % WT binding
Mean % WT Binding [9]: 88.2 % WT binding
Mean % WT Binding [10]: 97.2 % WT binding
Mean % WT Binding [11]: 28 % WT binding
Mean % WT Binding [12]: 50.3 % WT binding
Mean % WT Binding [13]: 97.2 % WT binding
Mean % WT Binding [14]: 103 % WT binding
Mean % WT Binding [15]: 108 % WT binding
Mean % WT Binding [16]: 96.9 % WT binding
Mean % WT Binding [17]: 118 % WT binding
Mean % WT Binding [18]: 118 % WT binding
Mean % WT Binding [19]: 89.3 % WT binding
Mean % WT Binding [20]: 111 % WT binding
Mean % WT Binding [21]: 8.1 % WT binding
Mean % WT Binding [22]: 2.6 % WT binding
Mean % WT Binding [23]: 5.6 % WT binding
Mean % WT Binding [24]: 7.6 % WT binding
Mean % WT Binding [25]: 100 % WT binding
Mean % WT Binding [26]: 97.7 % WT binding
Mean % WT Binding [27]: 94.3 % WT binding
Mean % WT Binding [28]: 89.9 % WT binding
Mean % WT Binding [29]: 98.9 % WT binding
Mean % WT Binding [30]: 95.4 % WT binding
Mean % WT Binding [31]: 86.2 % WT binding
Mean % WT Binding [32]: 94.7 % WT binding
Mean % WT Binding [33]: 106 % WT binding
Mean % WT Binding [34]: 104 % WT binding
Mean % WT Binding [35]: 68.6 % WT binding

B4: Refmab #6 (antibody, V domains shown)
VH: B2 VH
VL: B2 VL
notes: The alanine scan used IgG or Fab
Mean % WT Binding [36]: 102 % WT binding

B5: Refmab #5 (antibody, V domains shown)
VH: QVQLVQSGAEVKKPGASVKVSCKASGYTFTNYDINWVRQAPGQGLEWIGWIYPGDGSTKYNEKFKAKATLTADTSTSTAYMELRSLRSDDTAVYYCASGYEDAMDYWGQGTTVTVSS
VL: DIQMTQSPSSLSASVGDRVTINCKASQDINSYLSWFQQKPGKAPKTLIYRANRLVDGVPSRFSGSGSGQDYTLTISSLQPEDFATYYCLQYDEFPLTFGGGTKVEIK
notes: as for B2
Mean % WT Binding [2]: 118 % WT binding
Mean % WT Binding [3]: 106 % WT binding

B6: Refmab #5 (antibody, human IgG1, V domains shown)
VH: B5 VH
VL: B5 VL
notes: tested in IgG format
Mean % WT Binding [4]: 58.7 % WT binding
Mean % WT Binding [5]: 96.4 % WT binding
Mean % WT Binding [6]: 96.9 % WT binding
Mean % WT Binding [7]: 95.1 % WT binding
Mean % WT Binding [8]: 107 % WT binding
Mean % WT Binding [9]: 96.3 % WT binding
Mean % WT Binding [10]: 96.8 % WT binding
Mean % WT Binding [11]: 57.7 % WT binding
Mean % WT Binding [12]: 71.7 % WT binding
Mean % WT Binding [13]: 93.2 % WT binding
Mean % WT Binding [14]: 97.1 % WT binding
Mean % WT Binding [15]: 109 % WT binding
Mean % WT Binding [16]: 108 % WT binding
Mean % WT Binding [17]: 104 % WT binding
Mean % WT Binding [18]: 122 % WT binding
Mean % WT Binding [19]: 95.7 % WT binding
Mean % WT Binding [20]: 108 % WT binding
Mean % WT Binding [21]: 101 % WT binding
Mean % WT Binding [22]: 108 % WT binding
Mean % WT Binding [23]: 106 % WT binding
Mean % WT Binding [24]: 109 % WT binding
Mean % WT Binding [25]: 90.7 % WT binding
Mean % WT Binding [26]: 105 % WT binding
Mean % WT Binding [27]: 97.9 % WT binding
Mean % WT Binding [28]: 94.6 % WT binding
Mean % WT Binding [29]: 101 % WT binding
Mean % WT Binding [30]: 110 % WT binding
Mean % WT Binding [31]: 102 % WT binding
Mean % WT Binding [32]: 107 % WT binding
Mean % WT Binding [33]: 98.9 % WT binding
Mean % WT Binding [34]: 94.9 % WT binding
Mean % WT Binding [35]: 87.6 % WT binding

B7: Refmab #5 (antibody, V domains shown)
VH: B5 VH
VL: B5 VL
notes: as for B4
Mean % WT Binding [36]: 97 % WT binding

B8: Refmab #4 (antibody, human IgG1, V domains shown)
VH: QVQLVQSGAEVKKPGESVKVSCKASGYTFTNYGMNWVKQAPGQGLEWMGWINTYTGEPTYADKFQGRVTMTTDTSTSTAYMEIRNLGGDDTAVYYCARWSWSDGYYVYFDYWGQGTSVTVSS
VL: DIVMTQSPDSLTVSLGERTTINCKSSQSVLDSSTNKNSLAWYQQKPGQPPKLLLSWASTRESGIPDRFSGSGSGTDFTLTIDSPQPEDSATYYCQQSAHFPITFGQGTRLEIK
% WT binding [1]: 109%
